Laboratory results reported in patent US20200031807.

Molecular target: GST-histone H3 [GST: P08515]
Sequence (P08515 whole entry, looked up): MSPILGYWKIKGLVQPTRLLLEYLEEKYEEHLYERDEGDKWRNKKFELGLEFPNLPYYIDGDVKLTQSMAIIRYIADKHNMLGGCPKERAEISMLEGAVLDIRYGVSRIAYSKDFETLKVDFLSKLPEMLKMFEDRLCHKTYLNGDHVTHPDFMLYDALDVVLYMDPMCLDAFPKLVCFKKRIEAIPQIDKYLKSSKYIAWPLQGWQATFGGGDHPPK

B1: Flag-tagged AURKB protein (protein)
chain: MAQKENSYPWPYGRQTAPSGLSTLPQRVLRKEPVTPSALVLMSRSNVQPTAAPGQKVMENSSGTPDILTRRHFTIDDFEIGRPLGKGKFGNVYLAREKKSHFIVALKVLFKSQIEKEGVEHQLRREIEIQAHLHHPNILRLYNYFYDRRRIYLILEYAPRGELYKELQKSCTFDEQRTATIMEELADALMYCHGKKVIHRDIKPENLLLGLKGELKIADFGWSVHAPSLRRKTMCGTLDYLPPEMIEGRMHNEKVDLWCIGVLCYELLVGNPPFESASHNETYRRIVKVDLKFPASVPMGAQDLISKLLRHNPSERLPLAQVSAHPWVRANSRRVLPPSALQSVA
in vitro phosphorylation, read by western blot: the Flag-AURKB protein had kinase activity and can phosphorylate histone H3
